From US20140357845A1

Key:
Experiment in all cases: FACS
[1] = target: miniHA cluster1 (A/Brisbane/59/2007) (influenza A virus H1N1) (UniProt A8C8J4)
[2] = target: miniHA (A/Brisbane/59/2007) (influenza A virus H1N1) (UniProt A8C8J4)
[3] = target: mini2 cluster11 + 5 (A/Brisbane/59/2007) (influenza A virus H1N1) (UniProt A8C8J4)
[4] = target: HK68 H3m2-cl9 + 10 + 12 (influenza A virus H3N2) (UniProt Q91MA7)
[5] = target: H3-mini2-cl9 + 10 + 11 + 12-GCN4 (influenza A virus H3N2) (UniProt O11283)
[6] = target: HK68 H3m2-cl9 + 10 + 11 + 12 (influenza A virus H3N2) (UniProt Q91MA7)
[7] = target: HK68 H3m2-cl9 + 10 + 11 + 12-GCN4 (influenza A virus H3N2) (UniProt Q91MA7)
[8] = target: HK68 H3m2-cl9 + 10 + 11 + 12-tri (influenza A virus H3N2) (UniProt Q91MA7)

| Substance | % positive cells [1] | MFI relative to full-length HA [1] | % positive cells [2] | MFI relative to full-length HA [3] | % positive cells [4] | % positive cells [5] | % positive cells [6] | % positive cells [7] | % positive cells [8] |
| --- | --- | --- | --- | --- | --- | --- | --- | --- | --- |
| CR6254 (antibody) | 60% | 10% | 1 to 3% | 50% |  |  |  |  |  |
| CR6328 (antibody) | 60% |  | 1 to 3% |  |  |  |  |  |  |
| CR8020 (antibody) |  |  |  |  | > 15% | 60% | > 15% | > 15% | > 15% |
| CR8043 (antibody) |  |  |  |  | > 15% |  | > 15% | > 15% | > 15% |
